Assay results taken from US20250250355A1.

Molecular target: human SIRPα-isoform 2-his protein (human)
Experiment: indirect ELISA on coated human SIRPα-isoform 2-his, OD(450-630); negative control, curve not visible in the scan

Chain of human SIRPα-isoform 2-his protein (human) (chain, as listed by the source limits assumed): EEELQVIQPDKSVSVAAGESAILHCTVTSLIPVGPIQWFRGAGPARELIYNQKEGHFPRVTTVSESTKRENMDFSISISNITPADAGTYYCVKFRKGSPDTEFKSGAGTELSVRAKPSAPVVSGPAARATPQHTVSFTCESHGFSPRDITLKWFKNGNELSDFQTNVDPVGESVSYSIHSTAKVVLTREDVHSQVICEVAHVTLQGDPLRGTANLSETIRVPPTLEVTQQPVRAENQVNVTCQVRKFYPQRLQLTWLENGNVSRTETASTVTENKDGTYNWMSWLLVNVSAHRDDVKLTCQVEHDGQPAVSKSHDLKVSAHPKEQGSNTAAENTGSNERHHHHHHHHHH

- EC50: 18.8 nM
Substance: hIgG (antibody)
